# Source: patent US20260207798A1, “CYCLIC PEPTIDES AS PET IMAGING AGENTS OF GRANZYME B” (priority 2022, published 2026)
# Bridge positions count the residues as written; N and C are the ends. Square brackets hold non-standard residues; d marks the D form. * marks the point of attachment. Peg4 = polyethylene glycol with 4 units (PEG4); NEtAla = CCN[C@@H](C)C(=O)O; Propionyl = CCC(=O)*
# Target: T1, human Granzyme B (human, UniProt P10144 21-247)
# T1 construct: Captured on a Series S Streptavidin chip for SPR; also called hGranzyme B; GzmB
# Experiment: SPR, Biacore 8k+, hGranzyme B captured on SA chip, single cycle kinetics, 1:1 model
# Method: The kinetics of test peptide binding to human Granzyme B (hGranzyme B) was determined by SPR. All experiments were performed at 25° C. using the Biacore 8k+ instrument (Cytiva, Marlborough, MA). The Biacore 8k+ Insight Evaluation Software Version 3.0 was used to fit the data with a 1:1 binding model to determine the association rate constant kₐ (M⁻¹s⁻¹, where “M” ~equals molar and “s” ~equals seconds) and the dissociation rate constant kd (s⁻¹). These rate constants were used to calculate the equilibrium dissociation constant. KD (M)=kd/kₐ.
# To measure the binding kinetics of peptides of interest, surfaces were prepared by a capture method to a Series S Streptavidin (SA) chip using a 1×HBS-EP+ running buffer (Cytiva). hGranzyme B was diluted to 10 μg/mL in IX HBS-EP+ and flowed over spot 2 of each flow cell on the chip at a flow rate of 10 ul/min for 20 s to achieve a level of capture of ~1100 RU. An unmodified spot 1 of each flow cell was used as a matrix binding control or reference surface. Binding kinetics were measured using single cycle kinetics at 25° C. by injecting 5 concentrations with 3-fold serial dilutions of test peptides from 0.01 μM to 1 μM. Compound dilutions were performed manually in a running buffer containing 1×HBS-EP+(Cytiva), and a final concentration of 2% DMSO. The interaction analyses over hGranzyme B, were performed using a 120 s association time and a 900 s dissociation time. All experiments were conducted at a flow rate of 50 μL/min with a data collection rate of 10 Hz.
# Peptide dilution series included 2 zero concentration points (no compound) which were averaged and subtracted from the peptide concentration injection as DMSO control responses. Binding data acquired from the reference surface (matrix binding control) were subtracted from the binding data for hGranzyme B surface on the chip to determine specific binding. Next, the association phase data were solvent corrected to account for any signal fluctuation throughout the experiment due to subtle DMSO concentration differences. Corrected response data were analyzed using the Biacore 8k+ Evaluation Software Version 3.0 according to the manufacturer. SPR data for representative compounds of the disclosure are found in Table 8.
# T1 sequence (P10144 21-247 limits assumed): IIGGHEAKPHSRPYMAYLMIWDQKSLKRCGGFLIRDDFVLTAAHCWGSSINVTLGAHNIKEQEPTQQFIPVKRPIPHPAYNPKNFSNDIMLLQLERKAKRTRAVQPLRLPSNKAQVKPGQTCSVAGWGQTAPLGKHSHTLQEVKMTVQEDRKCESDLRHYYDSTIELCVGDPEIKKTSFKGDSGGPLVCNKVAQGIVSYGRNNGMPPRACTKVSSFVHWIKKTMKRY
row,Binder,Kd [nM]
1,{CH2CO}-FNFEDQSADTWQPCGGK(RESCA‑1)-NH2 (thioether N-14) [Compound 3a],15.1
2,{CH2CO}-FNFEDQSADTWQPCGGK(Propionyl)-NH2 (thioether N-14) [Compound 4a],11.7
3,{CH2CO}-FNFEDQSADTWQPCGGK(AF647)-NH2 (thioether N-14) [Compound 9a],13
4,{CH2CO}-FNFEDQSADTWQPCGGK(Peg4)-NH2 (thioether N-14) [Compound 16a],19
5,{CH2CO}-LNFEDQSPDTWQPCG-NH2 (thioether N-14; SMILES CC(C)C[C@@H]1NC(=O)CSC[C@@H](C(=O)NCC(N)=O)NC(=O)[C@@H]2CCCN2C(=O)[C@H](CCC(N)=O)NC(=O)[C@H](Cc2c[nH]c3ccccc23)NC(=O)[C@H]([C@@H](C)O)NC(=O)[C@H](CC(=O)O)NC(=O)[C@@H]2CCCN2C(=O)[C@H](CO)NC(=O)[C@H](CCC(N)=O)NC(=O)[C@H](CC(=O)O)NC(=O)[C@H](CCC(=O)O)NC(=O)[C@H](Cc2ccccc2)NC(=O)[C@H](CC(N)=O)NC1=O) [Compound 70a],18.5
6,{CH2CO}-FNFEDQSAITWQPCG-NH2 (thioether N-14; SMILES CC[C@H](C)[C@@H]1NC(=O)[C@H](C)NC(=O)[C@H](CO)NC(=O)[C@H](CCC(N)=O)NC(=O)[C@H](CC(=O)O)NC(=O)[C@H](CCC(=O)O)NC(=O)[C@H](Cc2ccccc2)NC(=O)[C@H](CC(N)=O)NC(=O)[C@H](Cc2ccccc2)NC(=O)CSC[C@@H](C(=O)NCC(N)=O)NC(=O)[C@@H]2CCCN2C(=O)[C@H](CCC(N)=O)NC(=O)[C@H](Cc2c[nH]c3ccccc23)NC(=O)[C@H]([C@@H](C)O)NC1=O) [Compound 85a],58.3
7,{CH2CO}-FNFEDQSAQTWQPCG-NH2 (thioether N-14; SMILES C[C@@H]1NC(=O)[C@H](CO)NC(=O)[C@H](CCC(N)=O)NC(=O)[C@H](CC(=O)O)NC(=O)[C@H](CCC(=O)O)NC(=O)[C@H](Cc2ccccc2)NC(=O)[C@H](CC(N)=O)NC(=O)[C@H](Cc2ccccc2)NC(=O)CSC[C@@H](C(=O)NCC(N)=O)NC(=O)[C@@H]2CCCN2C(=O)[C@H](CCC(N)=O)NC(=O)[C@H](Cc2c[nH]c3ccccc23)NC(=O)[C@H]([C@@H](C)O)NC(=O)[C@H](CCC(N)=O)NC1=O) [Compound 74a],23.9
8,{CH2CO}-FNFEDQSANTWQPCG-NH2 (thioether N-14; SMILES C[C@@H]1NC(=O)[C@H](CO)NC(=O)[C@H](CCC(N)=O)NC(=O)[C@H](CC(=O)O)NC(=O)[C@H](CCC(=O)O)NC(=O)[C@H](Cc2ccccc2)NC(=O)[C@H](CC(N)=O)NC(=O)[C@H](Cc2ccccc2)NC(=O)CSC[C@@H](C(=O)NCC(N)=O)NC(=O)[C@@H]2CCCN2C(=O)[C@H](CCC(N)=O)NC(=O)[C@H](Cc2c[nH]c3ccccc23)NC(=O)[C@H]([C@@H](C)O)NC(=O)[C@H](CC(N)=O)NC1=O) [Compound 81a],43.4
9,{CH2CO}-FNFEDQSAFTWQPCG-NH2 (thioether N-14; SMILES C[C@@H]1NC(=O)[C@H](CO)NC(=O)[C@H](CCC(N)=O)NC(=O)[C@H](CC(=O)O)NC(=O)[C@H](CCC(=O)O)NC(=O)[C@H](Cc2ccccc2)NC(=O)[C@H](CC(N)=O)NC(=O)[C@H](Cc2ccccc2)NC(=O)CSC[C@@H](C(=O)NCC(N)=O)NC(=O)[C@@H]2CCCN2C(=O)[C@H](CCC(N)=O)NC(=O)[C@H](Cc2c[nH]c3ccccc23)NC(=O)[C@H]([C@@H](C)O)NC(=O)[C@H](Cc2ccccc2)NC1=O) [Compound 78a],34.4
10,{CH2CO}-FNFEDQSALTWQPCG-NH2 (thioether N-14; SMILES CC(C)C[C@@H]1NC(=O)[C@H](C)NC(=O)[C@H](CO)NC(=O)[C@H](CCC(N)=O)NC(=O)[C@H](CC(=O)O)NC(=O)[C@H](CCC(=O)O)NC(=O)[C@H](Cc2ccccc2)NC(=O)[C@H](CC(N)=O)NC(=O)[C@H](Cc2ccccc2)NC(=O)CSC[C@@H](C(=O)NCC(N)=O)NC(=O)[C@@H]2CCCN2C(=O)[C@H](CCC(N)=O)NC(=O)[C@H](Cc2c[nH]c3ccccc23)NC(=O)[C@H]([C@@H](C)O)NC1=O) [Compound 80a],38.8
11,{CH2CO}-FNFEDQSATTWQPCG-NH2 (thioether N-14; SMILES C[C@@H]1NC(=O)[C@H](CO)NC(=O)[C@H](CCC(N)=O)NC(=O)[C@H](CC(=O)O)NC(=O)[C@H](CCC(=O)O)NC(=O)[C@H](Cc2ccccc2)NC(=O)[C@H](CC(N)=O)NC(=O)[C@H](Cc2ccccc2)NC(=O)CSC[C@@H](C(=O)NCC(N)=O)NC(=O)[C@@H]2CCCN2C(=O)[C@H](CCC(N)=O)NC(=O)[C@H](Cc2c[nH]c3ccccc23)NC(=O)[C@H]([C@@H](C)O)NC(=O)[C@H]([C@@H](C)O)NC1=O) [Compound 82a],45.8
12,{CH2CO}-FNFEDQSAETWQPCG-NH2 (thioether N-14; SMILES C[C@@H]1NC(=O)[C@H](CO)NC(=O)[C@H](CCC(N)=O)NC(=O)[C@H](CC(=O)O)NC(=O)[C@H](CCC(=O)O)NC(=O)[C@H](Cc2ccccc2)NC(=O)[C@H](CC(N)=O)NC(=O)[C@H](Cc2ccccc2)NC(=O)CSC[C@@H](C(=O)NCC(N)=O)NC(=O)[C@@H]2CCCN2C(=O)[C@H](CCC(N)=O)NC(=O)[C@H](Cc2c[nH]c3ccccc23)NC(=O)[C@H]([C@@H](C)O)NC(=O)[C@H](CCC(=O)O)NC1=O) [Compound 73a],21.3
13,{CH2CO}-FNFEDQSAATWQPCG-NH2 (thioether N-14; SMILES C[C@@H]1NC(=O)[C@H](C)NC(=O)[C@H](CO)NC(=O)[C@H](CCC(N)=O)NC(=O)[C@H](CC(=O)O)NC(=O)[C@H](CCC(=O)O)NC(=O)[C@H](Cc2ccccc2)NC(=O)[C@H](CC(N)=O)NC(=O)[C@H](Cc2ccccc2)NC(=O)CSC[C@@H](C(=O)NCC(N)=O)NC(=O)[C@@H]2CCCN2C(=O)[C@H](CCC(N)=O)NC(=O)[C@H](Cc2c[nH]c3ccccc23)NC(=O)[C@H]([C@@H](C)O)NC1=O) [Compound 77a],29.2
14,{CH2CO}-FNFEDQS[NEtAla]DTWQPCG-NH2 (thioether N-14; SMILES CCN1C(=O)[C@H](CO)NC(=O)[C@H](CCC(N)=O)NC(=O)[C@H](CC(=O)O)NC(=O)[C@H](CCC(=O)O)NC(=O)[C@H](Cc2ccccc2)NC(=O)[C@H](CC(N)=O)NC(=O)[C@H](Cc2ccccc2)NC(=O)CSC[C@@H](C(=O)NCC(N)=O)NC(=O)[C@@H]2CCCN2C(=O)[C@H](CCC(N)=O)NC(=O)[C@H](Cc2c[nH]c3ccccc23)NC(=O)[C@H]([C@@H](C)O)NC(=O)[C@H](CC(=O)O)NC(=O)[C@@H]1C) [Compound 72a],20.2
15,{CH2CO}-FNFEDQSAVTWQPCG-NH2 (thioether N-14; SMILES CC(C)[C@@H]1NC(=O)[C@H](C)NC(=O)[C@H](CO)NC(=O)[C@H](CCC(N)=O)NC(=O)[C@H](CC(=O)O)NC(=O)[C@H](CCC(=O)O)NC(=O)[C@H](Cc2ccccc2)NC(=O)[C@H](CC(N)=O)NC(=O)[C@H](Cc2ccccc2)NC(=O)CSC[C@@H](C(=O)NCC(N)=O)NC(=O)[C@@H]2CCCN2C(=O)[C@H](CCC(N)=O)NC(=O)[C@H](Cc2c[nH]c3ccccc23)NC(=O)[C@H]([C@@H](C)O)NC1=O) [Compound 84a],52.2
16,{CH2CO}-FNFEDQSASTWQPCG-NH2 (thioether N-14; SMILES C[C@@H]1NC(=O)[C@H](CO)NC(=O)[C@H](CCC(N)=O)NC(=O)[C@H](CC(=O)O)NC(=O)[C@H](CCC(=O)O)NC(=O)[C@H](Cc2ccccc2)NC(=O)[C@H](CC(N)=O)NC(=O)[C@H](Cc2ccccc2)NC(=O)CSC[C@@H](C(=O)NCC(N)=O)NC(=O)[C@@H]2CCCN2C(=O)[C@H](CCC(N)=O)NC(=O)[C@H](Cc2c[nH]c3ccccc23)NC(=O)[C@H]([C@@H](C)O)NC(=O)[C@H](CO)NC1=O) [Compound 79a],34.8
